Laboratory results reported in the supplement of paper PMC10126150.
± gives the standard deviation of the averaged measurements.

The sequences below were run on ATP (assay: switch fluorescence ratio, 500 uM ATP over buffer (Cy3 cluster intensity, sum of 5 cycles each) (fold (ratio)); higher = stronger signal-on switching upon ATP binding; sequences stand for … in TCGTCGGCAGCGTCAGATGTGTATAAGAGACAGTTTTTTTTTTTTTTTTTTTTTTTTT…TC). Details: aptamer strand: ATP DNA aptamer (quencher-CACCTGGGGGAGTATTGCGGAGGAAGG + anchor), 100 nM annealed; ATP concentration: 500 uM.
In short: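 Imaging in selection buffer was followed by imaging after 15 min with 500 uM ATP at 22 °C, for Cy3-labelled switching-strand clusters annealed to 100 nM quencher-labelled ATP aptamer on a modified Illumina MiSeq flow-cell. Five of these buffer/ATP cycles ran, separated by NaOH stripping and re-annealing. The fluorescence ratio per cluster is summed target-cycle over summed buffer-cycle Cy3 intensity, averaged per switch-domain sequence; clusters outside 100-1000 RFU were removed.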
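Further: ATP exposure 15 min at 22 °C before imaging.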

| Sequence | switch fluorescence ratio |
| --- | --- |
| GGTTTTAAGT | 1.01 ± 0.04 |
| GGTTTTGATG | 0.98 ± 0.039 |
| GGTTTTGGCG | 1 ± 0.061 |
| GGTTTTGGGG | 1.01 ± 0.026 |
| GGTTTTGTAG | 0.999 ± 0.012 |
| GGTTTTGTTG | 1.01 ± 0.0013 |
| GGTTTTTAGA | 1 ± 0.013 |
| GGTTTTTTAC | 1 ± 0.062 |
| GGTTTTTTTC | 1.02 ± 0.048 |
| GTAAAAAAAG | 1.09 ± 0.086 |
| GTAAAAATTT | 1.06 ± 0.11 |
| GTAAAAGGGG | 0.996 ± 0.042 |
| GTAAAGCCTG | 0.968 ± 0.032 |
| GTAACCAATT | 1.01 ± 0.021 |
| GTAAGAGGGG | 1.02 ± 0.03 |
| GTAAGATGAA | 1.01 ± 0.018 |
| GTAAGATTGA | 0.986 ± 0.015 |
| GTAAGGAGTA | 0.96199 ± 0.0002 |
| GTAAGGGATA | 0.988 ± 0.031 |
| GTAAGGGGAT | 0.988 ± 0.016 |
| GTAAGGGGCA | 1.07 ± 0.047 |
| GTAAGGGGTC | 1 ± 0.028 |
| GTAAGTAGGA | 1 ± 0.037 |
| GTAAGTTGGT | 1 ± 0.021 |
| GTAAGTTTTT | 0.984 ± 0.02 |

| Sequence | switch fluorescence ratio |
| --- | --- |
| GTAATAAAAT | 0.971 ± 0.034 |
| GTAATAAGCG | 1.007 ± 0.00016 |
| GTAATACGTG | 1.14 ± 0.041 |
| GTAATACTTG | 1.079 ± 0.01 |
| GTAATAGGTT | 0.956 ± 0.057 |
| GTAATAGTTG | 1.01 ± 0.022 |
| GTAATATTAT | 0.974 ± 0.032 |
| GTAATCATCG | 0.9847 ± 0.0073 |
| GTAATCTCAG | 0.997 ± 0.022 |
| GTAATGCTTG | 1.012 ± 0.01 |
| GTAATGGAAT | 0.9912 ± 0.0078 |
| GTAATGTGGT | 0.967 ± 0.024 |
| GTAATTAAGG | 0.996 ± 0.029 |
| GTAATTCAGA | 0.99 ± 0.037 |
| GTAATTGGGC | 0.964 ± 0.061 |
| GTAATTGTAA | 0.984 ± 0.012 |
| GTAATTTGCA | 0.9986 ± 0.0055 |
| GTACCATTTT | 0.9968 ± 0.0067 |
| GTACCGGGCA | 1.02 ± 0.026 |
| GTACGAGGGA | 0.997 ± 0.026 |
| GTACGAGTGC | 0.976 ± 0.019 |
| GTACGTAGGC | 1.03 ± 0.06 |
| GTACTGCCTG | 1 ± 0.024 |
| GTACTTCTGT | 0.96 ± 0.014 |
| GTAGAAAAAG | 1.99 ± 1.4 |

| Sequence | switch fluorescence ratio |
| --- | --- |
| GTAGAAGGGA | 1.01 ± 0.025 |
| GTAGAAGGGG | 1 ± 0.021 |
| GTAGACGGGT | 1.03 ± 0.031 |
| GTAGAGAGTG | 1 ± 0.02 |
| GTAGAGCGGG | 0.9889 ± 0.0042 |
| GTAGGACTGC | 1.01 ± 0.021 |
| GTAGGAGCCG | 0.9987 ± 0.0097 |
| GTAGGAGGGA | 1.05 ± 0.1 |
| GTAGGGCGCG | 1.021 ± 0.0035 |
| GTAGGGGCTG | 1 ± 0.074 |
| GTAGGGGTCA | 0.976 ± 0.054 |
| GTAGTAATTG | 1.075 ± 0.0065 |
| GTAGTCTTAG | 0.9943 ± 0.0097 |
| GTAGTGACGT | 0.975 ± 0.044 |
| GTAGTTCATG | 0.96 ± 0.018 |
| GTATAAGCCT | 1.05 ± 0.041 |
| GTATAGGGTT | 0.9931 ± 0.007 |
| GTATATCCGG | 0.975 ± 0.013 |
| GTATCAGGGC | 1.04 ± 0.033 |
| GTATCTTACT | 1.007 ± 0.0018 |
| GTATGAAATG | 0.999 ± 0.022 |
| GTATGAGGCG | 0.981 ± 0.04 |
| GTATGAGGGA | 0.993 ± 0.018 |
| GTATGATGTG | 0.9915 ± 0.008 |
| GTATGCGAAG | 1.03 ± 0.053 |

| Sequence | switch fluorescence ratio |
| --- | --- |
| GTATGCGCAA | 2.74 ± 0.06 |
| GTATGCGTGT | 1.04 ± 0.034 |
| GTATGCTAAC | 1 ± 0.043 |
| GTATGCTTGG | 0.9959 ± 0.0042 |
| GTATGGGGGA | 1.01 ± 0.031 |
| GTATGTTGCG | 0.96532 ± 0.00026 |
| GTATTATTTA | 1 ± 0.022 |
| GTATTGAAGT | 0.98469 ± 0.00015 |
| GTATTGCTTT | 0.963 ± 0.012 |
| GTATTGTCAG | 0.9663 ± 0.00064 |
| GTATTGTTTT | 1.14 ± 0.16 |
| GTATTTCGGC | 0.994 ± 0.027 |
| GTATTTGGGA | 0.991 ± 0.054 |
| GTATTTTATT | 1.006 ± 0.0064 |
| GTATTTTGGG | 0.996 ± 0.014 |
| GTATTTTTGG | 0.972 ± 0.03 |
| GTCAAAGATT | 0.98 ± 0.014 |
| GTCAATAAGG | 0.99 ± 0.016 |
| GTCAATTGGG | 0.992 ± 0.044 |
| GTCACTAAAG | 1.02 ± 0.043 |
| GTCAGAATGT | 1.02 ± 0.017 |
| GTCAGAGGCA | 0.991 ± 0.011 |
| GTCAGGCCGG | 1.09 ± 0.15 |
| GTCAGGTCTT | 0.975 ± 0.021 |
| GTCAGTCTGA | 0.9805 ± 0.003 |

| Sequence | switch fluorescence ratio |
| --- | --- |
| GTCATAGTGT | 0.955 ± 0.037 |
| GTCATCGAGT | 1.008 ± 0.0039 |
| GTCATCGGCC | 0.996 ± 0.035 |
| GTCATTCCGC | 1.65 ± 0.065 |
| GTCATTGCGG | 0.994 ± 0.015 |
| GTCCAAGGGT | 1.01 ± 0.035 |
| GTCCATTGGG | 1 ± 0.021 |
| GTCCATTTTG | 1.01 ± 0.064 |
| GTCCCGGTTT | 1.02 ± 0.095 |
| GTCCGAAAGA | 1.18 ± 0.095 |
| GTCCGGATGG | 1.02 ± 0.011 |
| GTCCGGGGTT | 0.994 ± 0.021 |
| GTCCGGGTGG | 1.05 ± 0.1 |
| GTCGAAGGAA | 1 ± 0.011 |
| GTCGACAGGT | 0.987 ± 0.031 |
| GTCGCCGACC | 0.996 ± 0.038 |
| GTCGCGGTTG | 1.03 ± 0.0015 |
| GTCGGAAGGG | 1.01 ± 0.032 |
| GTCGGGGGAT | 1.02 ± 0.014 |
| GTCGGGGTAC | 0.997 ± 0.034 |
| GTCGGTAAGG | 0.982 ± 0.021 |
| GTCGGTACTT | 0.996 ± 0.012 |
| GTCGGTATTC | 0.9947 ± 0.0081 |
| GTCGTAAAAA | 1.61 ± 0.0016 |
| GTCGTACGTT | 1.06 ± 0.025 |

| Sequence | switch fluorescence ratio |
| --- | --- |
| GTCGTTAGGA | 1.01 ± 0.0038 |
| GTCGTTCGCA | 1.15 ± 0.11 |
| GTCGTTGGTT | 0.985 ± 0.033 |
| GTCGTTTGGG | 0.991 ± 0.027 |
| GTCTTATGGC | 0.997 ± 0.011 |
| GTCTTATTTA | 0.976 ± 0.014 |
| GTCTTGACGA | 0.996 ± 0.019 |
| GTGAAAAGGG | 0.963 ± 0.038 |
| GTGAAAGGGA | 1.03 ± 0.017 |
| GTGAAAGTGG | 0.979 ± 0.028 |
| GTGAAGACGT | 1.002 ± 0.0077 |
| GTGAAGAGGG | 0.9977 ± 0.0056 |
| GTGAAGTATG | 1.016 ± 0.00074 |
| GTGAATAGAG | 1 ± 0.027 |
| GTGACAGGTG | 1.47 ± 0.053 |
| GTGACCTGGG | 1.03 ± 0.026 |
| GTGACGGGGT | 1.01 ± 0.022 |
| GTGACTTTCT | 0.99 ± 0.017 |
| GTGAGATGTT | 1 ± 0.016 |
| GTGAGCCGGT | 0.983 ± 0.013 |
| GTGAGGGAGT | 1.008 ± 0.006 |
| GTGAGGTGTG | 1.001 ± 0.009 |
| GTGAGTAGGG | 0.989 ± 0.018 |
| GTGAGTGGCA | 0.986 ± 0.029 |
| GTGATAAGAG | 0.999 ± 0.013 |

| Sequence | switch fluorescence ratio |
| --- | --- |
| GTGATAAGCG | 1.03 ± 0.04 |
| GTGATACCCG | 1.02 ± 0.058 |
| GTGATACTGG | 1.04 ± 0.014 |
| GTGATAGTTA | 0.967 ± 0.043 |
| GTGATCTGAT | 1.01 ± 0.029 |
| GTGATCTTAT | 0.9965 ± 0.0031 |
| GTGATCTTTT | 1 ± 0.049 |
| GTGATGGCAG | 0.9846 ± 0.0053 |
| GTGATGGGGG | 1.01 ± 0.051 |
| GTGATGTTAG | 1.01 ± 0.011 |
| GTGATTGCTA | 0.9878 ± 0.0061 |
| GTGATTGCTG | 0.9883 ± 0.0052 |
| GTGATTTGGT | 0.995 ± 0.019 |
| GTGATTTTGG | 0.9882 ± 0.0042 |
| GTGATTTTGT | 1.01 ± 0.032 |
| GTGCAATGTA | 1.1 ± 0.015 |
| GTGCCAAGGG | 1.16 ± 0.21 |
| GTGCCCCAAG | 1 ± 0.015 |
| GTGCCCGGAT | 0.9846 ± 0.0065 |
| GTGCCCTGAC | 1.29 ± 0.041 |
| GTGCCGGGGC | 1.08 ± 0.11 |
| GTGCCTTTGC | 1.11 ± 0.067 |
| GTGCGATGTA | 1.02 ± 0.031 |
| GTGCGCAGAT | 0.982 ± 0.022 |
| GTGCGCATTG | 1.03 ± 0.046 |

| Sequence | switch fluorescence ratio |
| --- | --- |
| GTGCTATTAT | 0.993 ± 0.024 |
| GTGCTTAATG | 0.975 ± 0.011 |
| GTGGAAAAGG | 0.966 ± 0.046 |
| GTGGAAAGCG | 0.981 ± 0.059 |
| GTGGAAGGGG | 0.988 ± 0.03 |
| GTGGAAGTCG | 0.966 ± 0.017 |
| GTGGAATGGG | 0.983 ± 0.055 |
| GTGGACGGGG | 0.983 ± 0.033 |
| GTGGACGTTT | 1.02 ± 0.057 |
| GTGGAGGGTG | 1.05 ± 0.035 |
| GTGGAGGTTG | 0.984 ± 0.03 |
| GTGGATAGCT | 1 ± 0.05 |
| GTGGATGCAT | 1.01 ± 0.022 |
| GTGGATGGGA | 0.977 ± 0.015 |
| GTGGATTAGA | 0.9767 ± 0.0056 |
| GTGGATTATC | 1.01 ± 0.036 |
| GTGGATTATT | 0.993 ± 0.05 |
| GTGGCAACGC | 0.98 ± 0.021 |
| GTGGCAGGTA | 1 ± 0.012 |
| GTGGCATTTT | 1.01 ± 0.03 |
| GTGGCTGAGG | 1.004 ± 0.0082 |
| GTGGCTTTAT | 1.01 ± 0.013 |
| GTGGCTTTGT | 1.02 ± 0.029 |
| GTGGGAAGTT | 0.9926 ± 0.0071 |
| GTGGGACACG | 1.01 ± 0.048 |
